Experimental data: patent US20220289795, “EFFICIENT METHOD FOR PREPARING PPR PROTEIN AND USE OF THE SAME” (EditForce, Inc., published 2022)
Substitutions are numbered along the chain they refer to.

How the values were obtained:
Test in all cases: ELONA; RPB-ELISA
v3.1_PPR20 = molecular target: T1, v3.1_PPR20 (Artificial Sequence); details: tags: luciferase fusion; label: 5'-biotin
T1 chain: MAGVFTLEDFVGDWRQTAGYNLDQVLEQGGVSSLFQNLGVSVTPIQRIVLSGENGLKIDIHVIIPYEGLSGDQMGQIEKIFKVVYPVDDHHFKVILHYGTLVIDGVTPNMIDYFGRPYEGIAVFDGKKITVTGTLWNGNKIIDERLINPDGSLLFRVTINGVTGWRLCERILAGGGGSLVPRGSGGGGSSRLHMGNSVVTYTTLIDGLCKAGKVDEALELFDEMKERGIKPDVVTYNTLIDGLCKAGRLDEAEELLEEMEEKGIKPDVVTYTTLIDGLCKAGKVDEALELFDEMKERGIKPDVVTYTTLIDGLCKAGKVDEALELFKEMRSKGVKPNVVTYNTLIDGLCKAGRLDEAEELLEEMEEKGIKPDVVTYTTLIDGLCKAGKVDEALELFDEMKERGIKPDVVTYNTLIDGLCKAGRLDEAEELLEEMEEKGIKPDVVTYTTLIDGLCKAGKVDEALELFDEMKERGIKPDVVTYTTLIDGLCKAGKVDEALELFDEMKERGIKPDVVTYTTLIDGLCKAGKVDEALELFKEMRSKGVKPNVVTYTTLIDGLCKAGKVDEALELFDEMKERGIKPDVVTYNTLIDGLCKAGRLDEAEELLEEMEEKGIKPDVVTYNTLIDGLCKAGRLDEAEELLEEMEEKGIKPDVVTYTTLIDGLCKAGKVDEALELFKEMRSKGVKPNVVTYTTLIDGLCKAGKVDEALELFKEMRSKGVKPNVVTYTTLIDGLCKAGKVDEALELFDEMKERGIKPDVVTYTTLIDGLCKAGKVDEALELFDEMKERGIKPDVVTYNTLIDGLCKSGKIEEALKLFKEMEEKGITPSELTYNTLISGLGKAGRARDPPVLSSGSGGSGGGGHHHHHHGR

NL_v2_PPR20 = molecular target: T2, NL_v2_PPR20 (Artificial Sequence); details: tags: N-term luciferase, C-term 6xHis; label: 5'-biotin
T2 chain: T1 chain with K318D, K528D, K668D, K703D

v3.1_PPR19 = molecular target: T3, v3.1_PPR19 (Artificial Sequence); details: tags: luciferase fusion; label: 5'-biotin
T3 chain: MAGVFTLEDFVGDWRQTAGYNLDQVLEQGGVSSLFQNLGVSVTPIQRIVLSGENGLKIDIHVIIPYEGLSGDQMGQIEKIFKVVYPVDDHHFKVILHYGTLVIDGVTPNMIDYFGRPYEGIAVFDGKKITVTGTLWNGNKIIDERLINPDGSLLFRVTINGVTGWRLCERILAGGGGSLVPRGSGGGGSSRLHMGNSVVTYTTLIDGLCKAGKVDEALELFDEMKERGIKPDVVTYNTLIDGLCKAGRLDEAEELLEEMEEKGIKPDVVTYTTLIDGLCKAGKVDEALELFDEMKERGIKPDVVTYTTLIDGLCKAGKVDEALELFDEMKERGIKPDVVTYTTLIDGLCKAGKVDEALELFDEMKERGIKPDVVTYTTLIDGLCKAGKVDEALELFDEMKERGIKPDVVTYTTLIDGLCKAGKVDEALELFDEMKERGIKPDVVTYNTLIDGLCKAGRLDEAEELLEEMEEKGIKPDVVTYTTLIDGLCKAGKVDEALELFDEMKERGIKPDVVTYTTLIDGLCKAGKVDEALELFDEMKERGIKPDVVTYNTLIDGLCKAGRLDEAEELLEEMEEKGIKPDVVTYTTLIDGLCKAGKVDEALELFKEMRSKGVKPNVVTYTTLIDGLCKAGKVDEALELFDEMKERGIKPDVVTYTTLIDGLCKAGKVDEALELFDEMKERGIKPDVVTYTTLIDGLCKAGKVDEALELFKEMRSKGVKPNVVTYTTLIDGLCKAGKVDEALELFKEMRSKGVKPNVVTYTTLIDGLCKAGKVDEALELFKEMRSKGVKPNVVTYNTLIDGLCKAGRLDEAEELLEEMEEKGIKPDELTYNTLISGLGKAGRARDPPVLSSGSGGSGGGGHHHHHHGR

NL_v2_PPR19 = molecular target: T4, NL_v2_PPR19 (Artificial Sequence); details: tags: N-term luciferase, C-term 6xHis; label: 5'-biotin
T4 chain: T3 chain with K598D, K703D, K738D, K773D

NL_v2_PPR21 = molecular target: T5, NL_v2_PPR21 (Artificial Sequence); details: tags: N-term luciferase, C-term 6xHis; label: 5'-biotin
T5 chain: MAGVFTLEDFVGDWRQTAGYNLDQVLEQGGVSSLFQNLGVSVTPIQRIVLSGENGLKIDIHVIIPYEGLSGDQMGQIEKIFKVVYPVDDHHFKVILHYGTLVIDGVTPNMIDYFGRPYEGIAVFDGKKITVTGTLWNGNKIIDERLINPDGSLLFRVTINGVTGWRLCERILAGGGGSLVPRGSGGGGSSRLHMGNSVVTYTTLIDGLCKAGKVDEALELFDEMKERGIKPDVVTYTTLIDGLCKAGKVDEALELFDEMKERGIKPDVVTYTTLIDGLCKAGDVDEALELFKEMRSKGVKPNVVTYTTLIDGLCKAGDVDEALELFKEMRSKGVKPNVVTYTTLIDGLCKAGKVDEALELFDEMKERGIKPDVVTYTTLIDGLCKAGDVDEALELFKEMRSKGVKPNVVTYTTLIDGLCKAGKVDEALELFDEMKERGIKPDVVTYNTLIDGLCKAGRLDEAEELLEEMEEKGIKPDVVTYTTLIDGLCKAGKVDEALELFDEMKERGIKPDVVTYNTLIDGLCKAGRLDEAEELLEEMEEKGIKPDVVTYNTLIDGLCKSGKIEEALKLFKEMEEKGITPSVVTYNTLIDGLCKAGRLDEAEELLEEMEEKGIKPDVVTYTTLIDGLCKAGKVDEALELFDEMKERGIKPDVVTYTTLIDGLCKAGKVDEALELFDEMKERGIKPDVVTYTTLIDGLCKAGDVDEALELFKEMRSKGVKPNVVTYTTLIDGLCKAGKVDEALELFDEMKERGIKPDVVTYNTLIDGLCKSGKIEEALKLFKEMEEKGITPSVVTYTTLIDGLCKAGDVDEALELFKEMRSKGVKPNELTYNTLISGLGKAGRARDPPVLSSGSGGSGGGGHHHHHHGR

v3.1_PPR21 = molecular target: T6, v3.1_PPR21 (Artificial Sequence); details: tags: luciferase fusion; label: 5'-biotin
T6 chain: T5 chain with D283K, D318K, D388K, D703K, D808K

B1: RNA_20 (ssRNA)
RNA: GACAUGCGUGAUGUGGAGUUAAGGCGACUG
binding signal (v3.1_PPR20): 3.6e+06 luminescence | binding signal (NL_v2_PPR20): 1.2e+07 luminescence

B2: RNA_19 (ssRNA)
RNA: GACAUGCGUGGGGGUGGUAGGAAAUGACUG
binding signal (v3.1_PPR19): 1.3e+07 luminescence | binding signal (NL_v2_PPR19): 1.3e+07 luminescence

B3: RNA_21 (ssRNA)
RNA: GACAUGCGGAAGAGUGUCUGGAGCAGACUG
binding signal (NL_v2_PPR21): 5e+07 luminescence | binding signal (v3.1_PPR21): 4.9e+06 luminescence
